This assay deals with T1, ASIC1a (human (endogenous in U251 MG, A172, A549)) (UniProt P78348).
T1 sequence: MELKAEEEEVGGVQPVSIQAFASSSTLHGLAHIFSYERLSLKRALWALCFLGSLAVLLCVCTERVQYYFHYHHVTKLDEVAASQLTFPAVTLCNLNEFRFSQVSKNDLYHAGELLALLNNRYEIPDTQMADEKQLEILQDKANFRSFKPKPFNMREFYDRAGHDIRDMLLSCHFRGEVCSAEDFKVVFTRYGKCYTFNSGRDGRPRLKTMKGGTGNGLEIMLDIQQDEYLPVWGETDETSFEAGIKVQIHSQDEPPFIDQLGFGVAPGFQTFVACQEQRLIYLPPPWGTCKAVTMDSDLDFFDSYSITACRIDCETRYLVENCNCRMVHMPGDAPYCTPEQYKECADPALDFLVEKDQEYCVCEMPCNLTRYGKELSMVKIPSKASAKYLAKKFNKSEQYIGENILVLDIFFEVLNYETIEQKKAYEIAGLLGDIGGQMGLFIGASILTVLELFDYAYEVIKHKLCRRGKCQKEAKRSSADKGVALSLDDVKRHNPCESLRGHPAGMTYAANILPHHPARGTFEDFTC

B1: recombinant mambalgin-2 (peptide)
chain: LKCFQHGKVVTCHRDMKFCYHNTGMPFRNLKLILQGCSSSCSETENNKCCSTDRCNK
In turn, B1 returned a growth of A172 glioma cells expressing the ASIC1a subunit, EC50 of 10 nM; a growth of A549 lung carcinoma cells expressing the ASIC1a subunit, EC50 of 8 nM; a growth of U251 MG glioma cells expressing the ASIC1a subunit, EC50 of 0.9 nM.

The values above are taken from article PMC7138811.
